According to article PMC3964601 (Biochemistry, 2012):
Like-named read-outs stand apart in the source and are kept apart here.

B1: Pyrococcus furiosus RNase P protein RPP21 (natural protein)
chain: MAKYNEKKEKKRIAKERIDILFSLAERVFPYSPELAKRYVELALLVQQKAKVKIPRKWKRRYCKKCHAFLVPGINARVRLRQKRMPHIVVKCLECGHIMRYPYIKEIKKRRKEKMEY
B3: Pyrococcus furiosus RNase P protein RPP29 (natural protein)
chain: MWRNSEERENRTSGRSQGSYQEIIGRTWIFRGAHRGRVNKKNIVWHELIGLKVRVVNSTHPGYVGIEGYVIDETRNMLVIAGENKVWKVPKDVCIFEFETWDGTKIKISGEKLVGRPEMRLKKRWRK

Assays:
Test in all cases: ITC
[1] = target: B3
[2] = target: B3; remark: listed apart in the source
[3] = target: B3; remark: listed apart in the source
[4] = target: B3; remark: listed apart in the source
[5] = target: B3; remark: listed apart in the source
[6] = target: B3; remark: listed apart in the source
[7] = target: B3; remark: listed apart in the source
[8] = target: B3; remark: listed apart in the source
[9] = target: B3; remark: listed apart in the source
[10] = target: B1
[11] = target: B1; remark: listed apart in the source
[12] = target: B1; remark: listed apart in the source
[13] = target: B1; remark: listed apart in the source
[14] = target: B1; remark: listed apart in the source
[15] = target: B1; remark: listed apart in the source
[16] = target: B1; remark: listed apart in the source
[17] = target: B1; remark: listed apart in the source
[18] = target: B1; remark: listed apart in the source
[19] = target: B1; remark: listed apart in the source
[20] = target: B1; remark: listed apart in the source

Which results are given for B1?
Ka [1]: 1.71e+07 M⁻¹; Ka [2]: 9.55e+06 M⁻¹; Ka [3]: 3.32e+07 M⁻¹; Ka [4]: 2.04e+06 M⁻¹; Ka [5]: 2.01e+07 M⁻¹; Ka [6]: 1.09e+07 M⁻¹; Ka [7]: 1.07e+07 M⁻¹; Ka [8]: 9.17e+06 M⁻¹

B2: Pyrococcus furiosus RPP21/A14V (natural protein)
chain: MAKYNEKKEKKRIVKERIDILFSLAERVFPYSPELAKRYVELALLVQQKAKVKIPRKWKRRYCKKCHAFLVPGINARVRLRQKRMPHIVVKCLECGHIMRYPYIKEIKKRRKEKMEY
Does B2 bind [9]?
Result: binds

For B3, which dH [10] is on record?
Its dH is -34.3 kcal/mol.

What about the dH [11] of the same binder?
The dH was -15.8 kcal/mol.

What about the “stoichiometry N” value [11] of the same binder?
The value was 1.03 RPP29 per RPP21.

What about the dH [12] of the same binder?
The dH was 5.95 kcal/mol.

And the “stoichiometry N” value [12]?
Its value is 0.9 RPP29 per RPP21.

And the dH [13]?
Its dH is -5.19 kcal/mol.

What about the “stoichiometry N” value [13] of the same binder?
Its value is 0.986 RPP29 per RPP21.

What about the dH [14] of the same binder?
Its dH is -32 kcal/mol.

What about the “stoichiometry N” value [14] of the same binder?
Its value is 0.97 RPP29 per RPP21.

What about the dH [15] of the same binder?
The dH was -10.2 kcal/mol.

What about the “stoichiometry N” value [15] of the same binder?
Its value is 0.998 RPP29 per RPP21.

What about the dH [16] of the same binder?
Its dH is -37.6 kcal/mol.

What about the dH [17] of the same binder?
The dH was 11.6 kcal/mol.

What about the “stoichiometry N” value [17] of the same binder?
Its value is 1.01 RPP29 per RPP21.

What about the dH [18] of the same binder?
Its dH is -43 kcal/mol.

What about the dH [19] of the same binder?
The dH was -23.5 kcal/mol.

What about the “stoichiometry N” value [19] of the same binder?
Its value is 1 RPP29 per RPP21.

And the dH [20]?
The dH was 17.1 kcal/mol.

What about the “stoichiometry N” value [20] of the same binder?
The value was 0.956 RPP29 per RPP21.
